Data published in IntAct's records for PubMed 31402609.

B1: Palmitoyltransferase ZDHHC5 (Homo sapiens), Q9C0B5 (parent)
chain: MPAESGKRFKPSKYVPVSAAAIFLVGATTLFFAFTCPGLSLYVSPAVPIYNAIMFLFVLANFSMATFMDPGIFPRAEEDEDKEDDFRAPLYKTVEIKGIQVRMKWCATCRFYRPPRCSHCSVCDNCVEEFDHHCPWVNNCIGRRNYRYFFLFLLSLTAHIMGVFGFGLLYVLYHIEELSGVRTAVTMAVMCVAGLFFIPVAGLTGFHVVLVARGRTTNEQVTGKFRGGVNPFTNGCCNNVSRVLCSSPAPRYLGRPKKEKTIVIRPPFLRPEVSDGQITVKIMDNGIQGELRRTKSKGSLEITESQSADAEPPPPPKPDLSRYTGLRTHLGLATNEDSSLLAKDSPPTPTMYKYRPGYSSSSTSAAMPHSSSAKLSRGDSLKEPTSIAESSRHPSYRSEPSLEPESFRSPTFGKSFHFDPLSSGSRSSSLKSAQGTGFELGQLQSIRSEGTTSTSYKSLANQTRNGSLSYDSLLTPSDSPDFESVQAGPEPDPPLGYTSPFLSARLAQQREAERHPRLVPTGPTHREPSPVRYDNLSRHIVASLQEREKLLRQSPPLPGREEEPGLGDSGIQSTPGSGHAPRTSSSSDDSKRSPLGKTPLGRPAVPRFGKPDGLRGRGVGSPEPGPTAPYLGRSMSYSSQKAQPGVSETEEVALQPLLTPKDEVQLKTTYSKSNGQPKSLGSASPGPGQPPLSSPTRGGVKKVSGVGGTTYEISV
partner: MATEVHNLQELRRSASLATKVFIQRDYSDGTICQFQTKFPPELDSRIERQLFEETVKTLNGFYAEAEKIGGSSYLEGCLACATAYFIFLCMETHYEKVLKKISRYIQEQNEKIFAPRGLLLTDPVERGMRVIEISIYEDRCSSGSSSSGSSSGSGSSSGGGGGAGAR
B2: Golgin subfamily A member 7B (Homo sapiens), Q2TAP0 (parent)
chain: B1 partner

Legend:
[1] = variants of: B1; details: with gog7b_human GOLGA7B, Q2TAP0
[2] = variants of: B1; details: with gog7b_human GOLGA7B, Q2TAP0; remark: listed apart in the source
[3] = variants of: B2; details: with zdhc5_human ZDHHC5, Q9C0B5
[4] = variants of: B2; details: with zdhc5_human ZDHHC5, Q9C0B5; remark: listed apart in the source

Row | effect of a mutation on the interaction [1] | effect of a mutation on the interaction [2] | effect of a mutation on the interaction [3] | effect of a mutation on the interaction [4] | Variant
1 | with no effect | decreasing interaction strength | – | – | C134S
2 | disrupting interaction strength | – | – | – | C236A;C237A;C245A
3 | – | – | with no effect | disrupting interaction strength | C33A;C78A;C81A;C90A;C141A
